Reference: patent US20230257470A1 (published 2023)

T1: human FcγRIIa(R) (human, UniProt P12318 36-217)
T1 construct: also called FcgRIIaR; FcγRIIa type R
T1 chain: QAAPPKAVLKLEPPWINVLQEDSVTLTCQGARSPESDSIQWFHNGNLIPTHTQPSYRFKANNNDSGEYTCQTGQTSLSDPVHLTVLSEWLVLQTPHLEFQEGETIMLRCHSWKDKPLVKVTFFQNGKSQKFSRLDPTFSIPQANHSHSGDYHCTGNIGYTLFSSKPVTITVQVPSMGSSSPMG

T2: human FcγRIIa(H) (human, UniProt P12318 36-217)
T2 construct: also called FcgRIIaH; FcγRIIa type H
T2 sequence: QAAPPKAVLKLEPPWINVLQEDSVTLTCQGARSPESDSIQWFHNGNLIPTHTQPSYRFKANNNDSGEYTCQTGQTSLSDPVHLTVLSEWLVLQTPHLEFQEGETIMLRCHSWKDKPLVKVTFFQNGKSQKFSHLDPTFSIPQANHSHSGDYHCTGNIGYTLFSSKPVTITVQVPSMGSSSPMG

T3: human FcγRIIb (human, UniProt P31994 43-217, limits assumed)
T3 construct: also called FcgRIIb; FcγIIB
T3 sequence: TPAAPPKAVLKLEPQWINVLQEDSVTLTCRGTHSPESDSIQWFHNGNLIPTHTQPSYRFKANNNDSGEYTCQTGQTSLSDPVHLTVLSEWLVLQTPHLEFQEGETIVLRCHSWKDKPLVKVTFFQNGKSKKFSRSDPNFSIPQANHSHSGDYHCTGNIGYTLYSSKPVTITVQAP


Columns and labels:
Experiment in all cases: SPR (Biacore), antibody captured, FcγR as analyte; amount bound / that of GpH7-B3/GpL16-k0 x 100;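 also: FcγR binding response divided by the captured antibody amount before comparison, measured at 25 °C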
human FcγRIa = molecular target: T4, human FcγRIa (human, UniProt P12314 16-292, limits assumed)
T4 construct: also called FcgRIa; CD64
T4 sequence (P12314 16-292 limits assumed): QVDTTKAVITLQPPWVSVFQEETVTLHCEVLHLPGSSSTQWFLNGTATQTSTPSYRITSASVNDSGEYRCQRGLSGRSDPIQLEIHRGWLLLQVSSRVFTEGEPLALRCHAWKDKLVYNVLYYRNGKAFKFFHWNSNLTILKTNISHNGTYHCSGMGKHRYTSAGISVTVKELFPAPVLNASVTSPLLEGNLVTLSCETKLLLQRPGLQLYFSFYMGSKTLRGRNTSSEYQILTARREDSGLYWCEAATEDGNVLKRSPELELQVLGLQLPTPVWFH
Description: (§1) Interaction between each modified antibody and Fcγ receptor prepared in the manner described above was analyzed using the BIACORE™ T100 surface plasmon resonance system (GE Healthcare), BIACORE™ T200 surface plasmon resonance system (GE Healthcare), BIACORE™ A100 surface plasmon resonance system or BIACORE™ 4000 surface plasmon resonance system. HBS-EP+(GE Healthcare) was used for the running buffer, and measurements were carried out at 25° C. The chips used were chips in which antigen peptides, Protein A (Thermo Scientific), Protein A/G (Thermo Scientific) or Protein L (ACTIGEN® protein (Alltech or BioVision) were immobilized on the Series S Sensor Chip CM5 (GE Healthcare) or Series S Sensor Chip CM4 (GE Healthcare) by amine coupling, or chips in which preliminarily biotinylated antigen peptides were allowed to interact and then immobilized on the Series S Sensor Chip SA (certified) (GE Healthcare). The target antibodies were captured on these sensor chips, Fcγ receptor diluted with the running buffer was allowed to interact, followed by measurement of the amount of bound antibody. The amounts bound were compared between antibodies. However, since the amount of Fcγ receptor bound depends on the amount of captured antibody, the values used for comparison were first corrected by dividing the amount of Fcγ receptor bound by the captured amount of each antibody. Through reaction with 10 mM glycine-HCl at pH 1.5, the sensor chips were regenerated by washing off antibody captured on the sensor chips and used repeatedly.
(§2) Binding strength was evaluated according to the following method based on the results of analyzing the interaction with each FcγR. […] That value was then further multiplied by 100, and the resulting value was used as an indicator of relative binding activity to each FcγR.

human FcγRIIa(R) = molecular target: T1, human FcγRIIa(R)
Description: as §1, §2

human FcγRIIa(H) = molecular target: T2, human FcγRIIa(H)
Description: as §1, §2

human FcγRIIb = molecular target: T3, human FcγRIIb
Description: as §1, §2

human FcγRIIIa(F) = molecular target: T5, human FcγRIIIa(F) (human, UniProt P08637 17-208, limits assumed)
T5 construct: also called FcgRIIIaF; FcγRIIIa allotype F158
T5 sequence (P08637 other isoform, or with tags, fused parts or gaps limits assumed): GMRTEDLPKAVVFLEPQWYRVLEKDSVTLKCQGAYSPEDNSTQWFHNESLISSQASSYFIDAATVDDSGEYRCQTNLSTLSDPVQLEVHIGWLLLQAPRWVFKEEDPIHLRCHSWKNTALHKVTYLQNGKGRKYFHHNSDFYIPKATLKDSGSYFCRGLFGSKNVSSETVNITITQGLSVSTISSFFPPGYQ
Description: as §1, §2

Row | Binder | relative binding activity (human FcγRIa) | relative binding activity (human FcγRIIa(R)) | relative binding activity (human FcγRIIa(H)) | relative binding activity (human FcγRIIb) | relative binding activity (human FcγRIIIa(F))
1 | GpH7-B3/GpL16-k0 variant Q295G (antibody, human IgG1, also called B3 variant; copies: 2 + 2) heavy: not shown light: DIVMTQSPLSLPVTPGEPASISCQASESLVHSNRNTYLHWYLQKPGQSPQLLIYKVSNRFSGVPDRFSGSGSGTDFTLKISRVEAEDVGVYYCSQNTHVPPTFGQGTKVEIE | 89 GpH7-B3/GpL16-k0 = 100 | 36 GpH7-B3/GpL16-k0 = 100 | 41 GpH7-B3/GpL16-k0 = 100 | 28 GpH7-B3/GpL16-k0 = 100 | 55 GpH7-B3/GpL16-k0 = 100
2 | GpH7-B3/GpL16-k0 variant Q295H (antibody, human IgG1, also called B3 variant; copies: 2 + 2) heavy: not shown light: DIVMTQSPLSLPVTPGEPASISCQASESLVHSNRNTYLHWYLQKPGQSPQLLIYKVSNRFSGVPDRFSGSGSGTDFTLKISRVEAEDVGVYYCSQNTHVPPTFGQGTKVEIE | 97 GpH7-B3/GpL16-k0 = 100 | 45 GpH7-B3/GpL16-k0 = 100 | 78 GpH7-B3/GpL16-k0 = 100 | 29 GpH7-B3/GpL16-k0 = 100 | 52 GpH7-B3/GpL16-k0 = 100
3 | GpH7-B3/GpL16-k0 variant Q295N (antibody, human IgG1, also called B3 variant; copies: 2 + 2) heavy: not shown light: DIVMTQSPLSLPVTPGEPASISCQASESLVHSNRNTYLHWYLQKPGQSPQLLIYKVSNRFSGVPDRFSGSGSGTDFTLKISRVEAEDVGVYYCSQNTHVPPTFGQGTKVEIE | 99 GpH7-B3/GpL16-k0 = 100 | 56 GpH7-B3/GpL16-k0 = 100 | 74 GpH7-B3/GpL16-k0 = 100 | 41 GpH7-B3/GpL16-k0 = 100 | 68 GpH7-B3/GpL16-k0 = 100
4 | GpH7-B3/GpL16-k0 variant Q295R (antibody, human IgG1, also called B3 variant; copies: 2 + 2) heavy: not shown light: DIVMTQSPLSLPVTPGEPASISCQASESLVHSNRNTYLHWYLQKPGQSPQLLIYKVSNRFSGVPDRFSGSGSGTDFTLKISRVEAEDVGVYYCSQNTHVPPTFGQGTKVEIE | 100 GpH7-B3/GpL16-k0 = 100 | 61 GpH7-B3/GpL16-k0 = 100 | 94 GpH7-B3/GpL16-k0 = 100 | 46 GpH7-B3/GpL16-k0 = 100 | 52 GpH7-B3/GpL16-k0 = 100
5 | GpH7-B3/GpL16-k0 variant Q295S (antibody, human IgG1, also called B3 variant; copies: 2 + 2) heavy: not shown light: DIVMTQSPLSLPVTPGEPASISCQASESLVHSNRNTYLHWYLQKPGQSPQLLIYKVSNRFSGVPDRFSGSGSGTDFTLKISRVEAEDVGVYYCSQNTHVPPTFGQGTKVEIE | 100 GpH7-B3/GpL16-k0 = 100 | 52 GpH7-B3/GpL16-k0 = 100 | 67 GpH7-B3/GpL16-k0 = 100 | 40 GpH7-B3/GpL16-k0 = 100 | 87 GpH7-B3/GpL16-k0 = 100
6 | GpH7-B3/GpL16-k0 variant Q295W (antibody, human IgG1, also called B3 variant; copies: 2 + 2) heavy: not shown light: DIVMTQSPLSLPVTPGEPASISCQASESLVHSNRNTYLHWYLQKPGQSPQLLIYKVSNRFSGVPDRFSGSGSGTDFTLKISRVEAEDVGVYYCSQNTHVPPTFGQGTKVEIE | 81 GpH7-B3/GpL16-k0 = 100 | 26 GpH7-B3/GpL16-k0 = 100 | 38 GpH7-B3/GpL16-k0 = 100 | 16 GpH7-B3/GpL16-k0 = 100 | 10 GpH7-B3/GpL16-k0 = 100
7 | GpH7-B3/GpL16-k0 variant Q295Y (antibody, human IgG1, also called B3 variant; copies: 2 + 2) heavy: not shown light: DIVMTQSPLSLPVTPGEPASISCQASESLVHSNRNTYLHWYLQKPGQSPQLLIYKVSNRFSGVPDRFSGSGSGTDFTLKISRVEAEDVGVYYCSQNTHVPPTFGQGTKVEIE | 95 GpH7-B3/GpL16-k0 = 100 | 38 GpH7-B3/GpL16-k0 = 100 | 70 GpH7-B3/GpL16-k0 = 100 | 24 GpH7-B3/GpL16-k0 = 100 | 49 GpH7-B3/GpL16-k0 = 100
8 | GpH7-B3/GpL16-k0 variant S298G (antibody, human IgG1, also called B3 variant; copies: 2 + 2) heavy: not shown light: DIVMTQSPLSLPVTPGEPASISCQASESLVHSNRNTYLHWYLQKPGQSPQLLIYKVSNRFSGVPDRFSGSGSGTDFTLKISRVEAEDVGVYYCSQNTHVPPTFGQGTKVEIE | 100 GpH7-B3/GpL16-k0 = 100 | 89 GpH7-B3/GpL16-k0 = 100 | 43 GpH7-B3/GpL16-k0 = 100 | 68 GpH7-B3/GpL16-k0 = 100 | 59 GpH7-B3/GpL16-k0 = 100
9 | GpH7-B3/GpL16-k0 variant S298K (antibody, human IgG1, also called B3 variant; copies: 2 + 2) heavy: not shown light: DIVMTQSPLSLPVTPGEPASISCQASESLVHSNRNTYLHWYLQKPGQSPQLLIYKVSNRFSGVPDRFSGSGSGTDFTLKISRVEAEDVGVYYCSQNTHVPPTFGQGTKVEIE | 88 GpH7-B3/GpL16-k0 = 100 | 79 GpH7-B3/GpL16-k0 = 100 | 38 GpH7-B3/GpL16-k0 = 100 | 34 GpH7-B3/GpL16-k0 = 100 | 25 GpH7-B3/GpL16-k0 = 100
